Experiment [1] concerns the target T1, SpoIIAA-P (phosphorylated SpoIIAA) (B. subtilis) (UniProt P10727).
T1 sequence (chain, phosphoserine at 58 (32P in the labelled tracer)): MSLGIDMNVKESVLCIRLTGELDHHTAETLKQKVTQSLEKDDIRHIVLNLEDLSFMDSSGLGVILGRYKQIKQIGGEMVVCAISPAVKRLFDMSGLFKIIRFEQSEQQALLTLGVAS

In experiment [2] the target is T2, RsbV-P (phosphorylated RsbV) (B. subtilis) (UniProt P17903).
T2 sequence (chain, phosphoserine at 56 (32P)): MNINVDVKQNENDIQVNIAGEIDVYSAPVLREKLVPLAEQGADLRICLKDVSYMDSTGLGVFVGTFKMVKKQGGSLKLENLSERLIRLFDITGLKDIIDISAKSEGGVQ

Experiment [3] has as its target T1, SpoIIAA-P (phosphorylated SpoIIAA) (B. subtilis). The source holds these as a separate data set.
Experiment [4] shares this target. The source holds these as a separate data set.
Experiment [5] concerns the target T3, SpoIIAA^R67T, phosphorylated (B. subtilis) (UniProt P10727).
T3 sequence (chain, phosphoserine at 58): T1 sequence (chain, phosphoserine at 58 (32P in the labelled tracer)) with R67T

For experiment [6], the target named is T1, SpoIIAA-P (phosphorylated SpoIIAA) (B. subtilis). This is another data set of the same source.
The target of experiment [7] is T3, SpoIIAA^R67T, phosphorylated (B. subtilis). The source holds these as a separate data set.
For experiment [8], the target named is T1, SpoIIAA-P (phosphorylated SpoIIAA) (B. subtilis). The source holds these as a separate data set.
Experiment [9] deals with T2, RsbV-P (phosphorylated RsbV) (B. subtilis). The source holds these as a separate data set.
Experiment [10] has the same target. The source holds these as a separate data set.

The results in this text go back to article PMC11418112.

Residue numbers refer to the chain shown, from its start. Names may count otherwise. Like-named read-outs stand apart in the source and are kept apart here.

B1: SpoIIE phosphatase domain (SpoIIE^590-827) (domain or fragment)
chain: SYRVSTGAAHAAKGGGLVSGDSYSMMELGARKYAAAISDGMGNGARAHFESNETIKLLEKILESGIDEKIAIKTINSILSLRTTDEIYSTLDLSIIDLQDASCKFLKVGSTPSFIKRGDQVMKVQASNLPIGIINEFDVEVVSEQLKAGDLLIMMSDGIFEGPKHVENHDLWMKRKMKGLKTNDPQEIADLLMEEVIRTRSGQIEDDMTVVVVRIDHNTPKWASIPVPAIFQNKQEIS
B1: in [1], the KM for SpoIIAA-P (multiple turnover, 10 mM MgCl2, Michaelis-Menten fit) is 28.7 µM; the kcat of SpoIIAA-P dephosphorylation (multiple turnover, 10 mM MgCl2, Michaelis-Menten fit) worked out at 0.39 min^–1; the kcat/KM of SpoIIAA-P dephosphorylation (multiple turnover, 0.1 μM SpoIIE, 10 mM MgCl2) amounted to 0.011 μM^–1 min^–1. Besides, in [2], the KM for RsbV-P (single turnover, varying SpoIIE, 10 mM MnCl2, Michaelis-Menten fit) stood at 12.8 µM; the kcat of RsbV-P dephosphorylation (single turnover, 10 mM MnCl2, Michaelis-Menten fit) was 0.0086 min^–1; the kcat/KM of RsbV-P dephosphorylation (single turnover, 0.15 μM RsbV-P, 10 mM MnCl2) came out at 0.00045 μM^–1 min^–1. For the same molecule, the KM for SpoIIAA-P as printed in the legend of Figure 4B (multiple turnover, 10 mM MgCl2) in experiment [3] was 0.39 µM. This molecule had a kobs of SpoIIAA-P dephosphorylation over time (0.1 μM SpoIIE, 0.5 μM SpoIIAA-P, 10 mM MnCl2) in experiment [4] of 0.98 min^–1. Moreover, the kobs of SpoIIAA^R67T dephosphorylation over time (0.1 μM SpoIIE, 10 mM MnCl2) in experiment [5] stood at 0.056 min^–1.

B2: SpoIIE^P752R (phosphatase domain, SpoIIE^590-827) (domain or fragment)
chain: B1 chain with P163R
Take B2: in [1], the KM for SpoIIAA-P (multiple turnover, 10 mM MgCl2, Michaelis-Menten fit) worked out at 38.6 µM; the kcat of SpoIIAA-P dephosphorylation (multiple turnover, 10 mM MgCl2, Michaelis-Menten fit) was 0.15 min^–1; the kcat/KM of SpoIIAA-P dephosphorylation (multiple turnover, 0.1 μM SpoIIE, 10 mM MgCl2) amounted to 0.0039 μM^–1 min^–1. In addition, in experiment [2], the KM for RsbV-P (single turnover, varying SpoIIE, 10 mM MnCl2, Michaelis-Menten fit) worked out at 79.3 µM; the kcat of RsbV-P dephosphorylation (single turnover, 10 mM MnCl2, Michaelis-Menten fit) stood at 0.15 min^–1; the kcat/KM of RsbV-P dephosphorylation (single turnover, 0.15 μM RsbV-P, 10 mM MnCl2) came to 0.0035 μM^–1 min^–1.

B3: SpoIIE^I723S (phosphatase domain, SpoIIE^590-827) (domain or fragment)
chain: B1 chain with I134S
Take B3: in experiment [6], the fold decrease in rate of dephosphorylation of SpoIIAA-P, against SpoIIE (Fig. S6) stood at 2 fold. For the same molecule, the fold decrease in rate of dephosphorylation of SpoIIAA^R67T, against SpoIIE (Fig. S6) in experiment [7] was 2 fold. In experiment [1], the KM for SpoIIAA-P (multiple turnover, 10 mM MgCl2, Michaelis-Menten fit) was 29.1 µM; the kcat of SpoIIAA-P dephosphorylation (multiple turnover, 10 mM MgCl2, Michaelis-Menten fit) amounted to 0.036 min^–1; the kcat/KM of SpoIIAA-P dephosphorylation (multiple turnover, 0.1 μM SpoIIE, 10 mM MgCl2) stood at 0.001 μM^–1 min^–1. Moreover, in experiment [2], the KM for RsbV-P (single turnover, varying SpoIIE, 10 mM MnCl2, Michaelis-Menten fit) was determined as 47.6 µM; the kcat of RsbV-P dephosphorylation (single turnover, 10 mM MnCl2, Michaelis-Menten fit) was 0.018 min^–1; the kcat/KM of RsbV-P dephosphorylation (single turnover, 0.15 μM RsbV-P, 10 mM MnCl2) stood at 0.00028 μM^–1 min^–1.

B4: SpoIIE^E675S (phosphatase domain, SpoIIE^590-827) (domain or fragment)
chain: B1 chain with E86S
Take B4: the fold decrease in activity toward SpoIIAA-P with manganese as the metal cofactor, against SpoIIE (Fig. S5) in [8] is 2 fold. For the same molecule, in experiment [1], the KM for SpoIIAA-P (multiple turnover, 10 mM MgCl2, Michaelis-Menten fit) stood at 18.3 µM; the kcat of SpoIIAA-P dephosphorylation (multiple turnover, 10 mM MgCl2, Michaelis-Menten fit) turned out to be 0.02 min^–1; the kcat/KM of SpoIIAA-P dephosphorylation (multiple turnover, 0.1 μM SpoIIE, 10 mM MgCl2) is 0.001 μM^–1 min^–1. Besides, in [2], the KM for RsbV-P (single turnover, varying SpoIIE, 10 mM MnCl2, Michaelis-Menten fit) is 95.7 µM; the kcat of RsbV-P dephosphorylation (single turnover, 10 mM MnCl2, Michaelis-Menten fit) was found to be 0.063 min^–1; the kcat/KM of RsbV-P dephosphorylation (single turnover, 0.15 μM RsbV-P, 10 mM MnCl2) worked out at 0.00058 μM^–1 min^–1. In addition, in experiment [4], the kobs of SpoIIAA-P dephosphorylation over time (0.1 μM SpoIIE, 0.5 μM SpoIIAA-P, 10 mM MnCl2) was determined as 0.23 min^–1. The kobs of SpoIIAA^R67T dephosphorylation over time (0.1 μM SpoIIE, 10 mM MnCl2) in [5] is 0.086 min^–1.

B5: SpoIIE^3X (triple mutation of E675S, I723S, and P752R; phosphatase domain) (domain or fragment)
chain: B1 chain with E86S, I134S, P163R
With B5, the kcat/KM of RsbV-P dephosphorylation, fold change against SpoIIE (Fig. 4C) in experiment [9] turned out to be 5 fold. Besides, in experiment [10], the KM for RsbV-P (single turnover, varying SpoIIE, 10 mM MnCl2, Michaelis-Menten fit) was 29.1 µM and the kcat of RsbV-P dephosphorylation (single turnover, 10 mM MnCl2, Michaelis-Menten fit) is 0.043 min^–1. Moreover, in [3], the kcat of SpoIIAA-P dephosphorylation (multiple turnover, 10 mM MgCl2, Michaelis-Menten fit) worked out at 0.011 min^–1 and the kcat/KM of SpoIIAA-P dephosphorylation (multiple turnover, 0.1 μM SpoIIE, 10 mM MgCl2) was 0.00011 μM^–1 min^–1.
